Measurements: the supplement of paper PMC9170038

System: MS2 coat protein
Assay: apparent KD of MS2 coat protein; designed switch direction (-1 OFF switch, 1 ON switch): 1; higher = weaker reporter binding
How it was run: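 Designed RNA switches with common flanks were made on Illumina chips by stalled E. coli RNA polymerase. Titration with SNAP-549-labelled MS2 coat protein doubled from 0.7 or 1.5 nM up to 3 µM. Apparent KD is each design's median over clusters after curve-fitting normalised fluorescence.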

[1] = input ligand: microRNA oligo, concentration not stated
[2] = Eterna round: R95, input ligand: microRNA oligo, concentration not stated
[3] = Eterna round: R95, input ligand: FMN 200 uM
[4] = Eterna round: R95, input ligand: none

| Sequence | apparent KD of MS2 coat protein [1] [nM] | apparent KD of MS2 coat protein (input ligand: FMN 200 uM) [nM] | apparent KD of MS2 coat protein (input ligand: none) [nM] | apparent KD of MS2 coat protein [2] [nM] | apparent KD of MS2 coat protein [3] [nM] | apparent KD of MS2 coat protein [4] [nM] |
| --- | --- | --- | --- | --- | --- | --- |
| UUAGAAUUGCAAGGAUAUCUAAUUUAGAUAGUAAGAGAAGGUGCUUUAUAGUUACAUGAGGAUCACCCAUGUUUUUUUGUUUAU [JR_SSNG1_Sub059] (Eterna round: R96, puzzle: Same State NG 1) | 26.5 | – | – | – | – | – |
| GCUUGCGGCGCAGGAUAUGGGUGCCUGUACAUGAGGAUCACCCAUGUUAAGGGACGGAAAACGAACCAGAAGGGCGUCGCGAGC [Inraeded] (Eterna round: R96, puzzle: Same State NG 2) | 218 | 84.9 | 1280 | – | – | – |
| GUACAACAUGAGGAUCACCCAUGUAUAUAUAUACGAGGAUAUGCAUGUACGAAAGUAUAUGCAGAAGGCGUUGUAC [Pin2Pin] (puzzle: Same State 1) | – | – | – | 75.4 | – | – |
| UGGCUCAGAGCAGGAUAUACGUGGUCACAUGAGGAUCACCCAUGUCUCGAGCUUCGGCUCGAGGCGUAGAAGGGCUCUGAGCCU [SSNG2/6-B3] (Eterna round: R96, puzzle: Same State NG 2) | 131 | 118 | 258 | – | – | – |
| AGGCUCAGAGCAGGAUAUAUGUGAUCACAUGAGGAUCACCCAUGUCUCGAGCUUCGGCUCGAGACAUAGAAGGGCUCUGAGCCA [SSNG2/3-B1] (Eterna round: R96, puzzle: Same State NG 2) | 39.3 | 2490 | 28.3 | – | – | – |
| UUGAGGUGUCAAGGAUAUGCUACCGUUUCGGUAGCAGAAGGUGAUCACAUGAGGAUCACCCAUGUAUGCAUGCGUGAGCGUGCU [JL SSNG1 3.61] (Eterna round: R96, puzzle: Same State NG 1) | 23.4 | – | – | – | – | – |
| CCGAUAAUAGGACAGGAUAUGACUGUCGUCACAUGAGGAUCACCCAUGUCCCGGCAAUGCCACCGUUAGAAGGGUCCUAUCUCGA [Maeded] (puzzle: Same State 2) | – | – | – | 13.5 | – | – |
| GUUCGUUUGAUAGGAUAUCGCUAUACAUGAGGAUCACCCAUGUUUACCACGCUGGUUUUUCGUACCGAGAAGGAUUCUGAUGAU [JL JR sub007 mod 2] (Eterna round: R96, puzzle: Same State NG 2) | 30.5 | – | – | – | – | – |
| UGUUGUAUUACAGGAUAUCUAGUAUUUUUAUUUAGAGAAGGGUAUUCACAUGAGGAUCACCCAUGUAUAUACGAGGAAGUUGUG [JMF's solution 9] (Eterna round: R96, puzzle: Same State NG 1) | 28 | – | – | – | – | – |
| AUAAGGCAAGCUUUUUUCUCGUAGUGUAAACAUGAGGAUCACCCAUGUGCCCACCCUGGAUCUUUGGAUCGCAAAAC [Ceatgeor] (puzzle: Sensor for hsa-mir-208a) | – | – | – | 18.6 | 23.9 | 23.7 |
| GGUGGGUUACUACCAACACAUGAGGAUCACCCAUGUUUUGGGAAGGAUAUGGUACCUAUUUGGUACCAGAAGGUCCUGUUGGUG [salish99_SSNG3_r04_706] (Eterna round: R96, puzzle: Same State NG 3) | 105 | 36.6 | 116 | – | – | – |
| UUUGCAUGACGAGGAUAUCAUUUAUAUCUUGAUUGAGAAGGCGUUCUUUUUUUUACCUAACAUGAGGAUCACCCAUGUGACAGU [JR_SSNG1_Sub050] (Eterna round: R96, puzzle: Same State NG 1) | 13.4 | 14.1 | 16.1 | – | – | – |
| AGGAGACAUGAGGAUCACCCAUGUACUUCAUAAGGAGAGAACGAGGAUAUGUAGAGAGAGAGGGAACAGAAGGUGUGAGAGGAA [Default title] (Eterna round: R96, puzzle: Same State NG 3) | 16.2 | 18.7 | 18.7 | – | – | – |
| AAAAGUUGCGGGCAGGAUAUGUAUUAAAAUACAUGAGGAUCACCCAUGUGCGGGUAUAACACCCGACAGAAGGGCCAAACGCGAC [Mat - Same State 2 - Mod of UCT - D96] (puzzle: Same State 2) | – | – | – | 178 | 27.4 | 333 |
| CGGAAACGUCAAGGAUAUGCUACCGUUUCGGUAGCAGAAGGUGAUCACAUGAGGAUCACCCAUGUAUGCAUGCGUGAGCGUGCU [JL SSNG1 3.56] (Eterna round: R96, puzzle: Same State NG 1) | 187 | 206 | 177 | – | – | – |
| GUAGAUAUAACGGAGGAUAUUCAAUGAGAGACAUGAGGAUCACCCAUGUGAGAGUGAGAUGAUAGGAAGAAGGCUGAGAGAGAUG [Altered State 2-7 - Jieux - Same State 2] (puzzle: Same State 2) | – | – | – | 70.3 | 94.2 | 64.7 |

| Sequence | apparent KD of MS2 coat protein [1] [nM] | apparent KD of MS2 coat protein (input ligand: FMN 200 uM) [nM] | apparent KD of MS2 coat protein (input ligand: none) [nM] | apparent KD of MS2 coat protein [2] [nM] | apparent KD of MS2 coat protein [3] [nM] | apparent KD of MS2 coat protein [4] [nM] |
| --- | --- | --- | --- | --- | --- | --- |
| GGAGCCAAGGCAGGAUAUUCAAAACAUGAGGAUCACCCAUGUGGGUAAAAGGCCAGAAGGCCUUGGGAGAAGGGCCAUGGCUCG [Xeonanis - 13 mod12] (Eterna round: R96, puzzle: Same State NG 2) | 9.02 | 11.5 | 15.8 | – | – | – |
| GCAGUGGCGGUAGGAUAUCUAGGAUAUGGGAAAGACUAAGUCUGUAGGUCACCUAACCCAGAAGGAGAGAAGGACCCUGUAAGG [pwkr ssNG2 2FMN + F9.21] (Eterna round: R96, puzzle: Same State NG 2) | 74.7 | 348 | 222 | – | – | – |
| GUGAAACAUGAGGAUCACCCAUGUAUGACGGGCACAGGAUAUCGUGGUUCGCUCAUACUACGAGAAGGGUGAAAAG [Inordien] (puzzle: Same State 1) | – | – | – | 18 | 20.5 | 18.9 |
| AGGCUCAGACGAGGAUAUAUGUGGUCACAUGAGGAUCACCCAUGUCUCGAGCUUCGGCUCGAGGCAUAGAAGGUGUCUGAGCCA [SSNG2/5-C1] (Eterna round: R96, puzzle: Same State NG 2) | 42.5 | 115 | 25.7 | – | – | – |
| GCGGUACCUAACAUGAGGAUCACCCAUGUUCCGGAAACGGCACAGGAUAUCUGUCCGAAAAGGUCAGAGAAGGGUGAAAUCCGC [Fiskers NG3ss - 93] (Eterna round: R96, puzzle: Same State NG 3) | 51.6 | 361 | 93.3 | – | – | – |
| AAAAGAAACAUGUACCUGAGUACAUGAAAACAUGAGGAUCACCCAUGUAACAAGUUGGGUGUUUGUCUUAUAAGAAA [JL pocket 5] (Eterna round: R96, puzzle: Sensor for hsa-mir-208a) | 238 | 68.7 | 231 | – | – | – |
| AAUUAAUUAAUACAUGAGGAUCACCCAUGUAAUUAUUAGAUCAAGGAUAUCAGCUCGUUUAGAGCUGAGAAGGUGAUCACAUGU [SSNG3/18-A3] (Eterna round: R96, puzzle: Same State NG 3) | 211 | – | – | – | – | – |
| AGUCCAGCCUGAGCUGGACAAAAGCAUGUACAUGAGGAUCACCCAUGUCAUGUACAAGCUUUUUGCUCGUAUUAAUA [Mat - hsa-mir-208a - Mod of JL - D30] (puzzle: Sensor for hsa-mir-208a) | – | – | – | 12.7 | 491 | 528 |
| UAUUUAAUCGUAGGAUAUAGAAUGAAAUUUGUACUAGAAGGACGUUACAUGAGGAUCACCCAUGUGGUAAGUGGGACAUAGAUU [JR_SSNG1_Sub035] (Eterna round: R96, puzzle: Same State NG 1) | 105 | 235 | 121 | – | – | – |
| GCCGCGUUUCGCGCCUACAUGAGGAUCACCCAUGUUUGUAGGCAGGAUAUCGCUCGCUUUGCGGGCGAGAAGGGCUGUUGUGGC [salish99_SSNG3_R04_019] (Eterna round: R96, puzzle: Same State NG 3) | 41.8 | 45.8 | 54.4 | – | – | – |
| GGAGCCGGCACUGAGGAUAUUCAUAUUAAAACAUGAGGAUCACCCAUGUAGGCCAGAAGGCCUUGGGAGAAGGCGGGUCGACUCG [Diqureveri - 1] (puzzle: Same State 2) | – | – | – | 523 | 29.7 | 371 |
| GGAGCCGGCCUAGGAUAUUUCAUAACAAAACAUGAGGAUCACCCAUGUAGGCCAGAAGGCCUUGGGAAGAAGGAGGUCGGCUCC [Loop Effect - C26] (Eterna round: R96, puzzle: Same State NG 2) | 18.9 | – | – | – | – | – |
| GCGCAGCUGCGCAAUAUUACAUGAGGAUCACCCAUGUUGUCACAGGAUAUGCUGGACAGCGUCGAGCAGAAGGGUGACCAAACA [Zasovexe] (Eterna round: R96, puzzle: Same State NG 3) | 97.2 | 191 | 300 | – | – | – |
| CUGAGCGAUCAAGGAUAUCACGUCGAUUAGACGUGAGAAGGUGAUCCAUACAUGAGGAUCACCCAUGUAUAACAUGAAGCUCAG [SSNG1/8-A2] (Eterna round: R96, puzzle: Same State NG 1) | 507 | 414 | 861 | – | – | – |
| UGAAUACAUGAGGAUCACCCAUGUCAACGUAGUCGAGGAUAUGGGCAGCCGUGAGGCGUACCAGAAGGCGAAGAGG [Mat - Same State 1 - Mod of JL - D4] (puzzle: Same State 1) | – | – | – | 88.8 | 40.4 | 132 |
| AGUCCUGCCUGAGCAGGACAAAAGCAUGUACAUGAGGAUCACCCAUGUCAUGUACAAGCUUUUUGCUCGUCUUAAUA [Mat - hsa-mir-208a - Mod of JL - D41] (puzzle: Sensor for hsa-mir-208a) | – | – | – | 15.4 | 556 | 854 |
